In patent publication US20240261333A1, “NOVEL TARGETS FOR ENHANCING ANTI-TUMOR IMMUNITY” (THE BROAD INSTITUTE, INC., priority 2021, published 2024):

T1: B3GNT2 (Homo sapiens, UniProt Q9NY97)
T1 construct: The respective ORFs of candidate genes [CD274 (NM_014143), MCL1 (NM_021960), JUNB (NM_002229), and B3GNT2 (NM_006577)] were synthesized; expressed in transfected cells; host or cells: A375 melanoma cells (lentiviral ORF overexpression)
T1 sequence (Q9NY97 1-397): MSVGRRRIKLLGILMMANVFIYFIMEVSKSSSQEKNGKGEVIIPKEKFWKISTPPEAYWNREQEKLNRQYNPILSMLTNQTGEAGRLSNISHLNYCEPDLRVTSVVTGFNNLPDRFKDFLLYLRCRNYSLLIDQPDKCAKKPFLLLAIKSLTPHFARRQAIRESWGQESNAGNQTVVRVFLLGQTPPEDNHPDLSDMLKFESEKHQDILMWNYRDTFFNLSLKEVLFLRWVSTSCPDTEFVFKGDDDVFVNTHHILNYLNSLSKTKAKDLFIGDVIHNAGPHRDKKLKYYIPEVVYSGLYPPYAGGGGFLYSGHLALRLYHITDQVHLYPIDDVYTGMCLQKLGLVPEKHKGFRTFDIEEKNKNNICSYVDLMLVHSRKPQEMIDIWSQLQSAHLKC


Target: T1, B3GNT2
Test: Co-IP of FLAG-tagged B3GNT2 followed by mass spectrometry
Type: cell-based
Parameters: C-term IgG / C-term flag: unit not given here
Outline: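 Co-purifying proteins were identified by fractionated nano-LC–MS/MS on an Orbitrap Elite, run data-dependent. Beforehand, lysates in 1% Triton X-100/HEPES buffer were incubated overnight at 4° C with anti-FLAG or […] and pulled down on Protein A/G magnetic beads for 4 h. Duplicate biological replicates.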

[1] = Co-IP followed by mass spectrometry of B3GNT2, C-term tag, FLAG pull-down
[2] = Co-IP followed by mass spectrometry of B3GNT2, C-term tag, IgG pull-down
[3] = Co-IP followed by mass spectrometry of B3GNT2, N-term tag, FLAG pull-down
[4] = Co-IP followed by mass spectrometry of B3GNT2, N-term tag, IgG pull-down

| Molecule | C-term flag [1] | C-term IgG [2] | N-term FLAG [3] | N-term IgG [4] | C-term flag (Co-IP with FLAG antibody, C-terminally FLAG-tagged B3GNT2, mass spectrometry count, unit not given) | N-term FLAG (Co-IP with FLAG antibody, N-terminally FLAG-tagged B3GNT2, mass spectrometry count, unit not given) | C-term IgG (Co-IP with IgG control antibody, C-terminally FLAG-tagged B3GNT2, mass spectrometry count, unit not given) | N-term IgG (Co-IP with IgG control antibody, N-terminally FLAG-tagged B3GNT2, mass spectrometry count, unit not given) |
| --- | --- | --- | --- | --- | --- | --- | --- | --- |
| PUM1 (protein) SVACVLKRKAVLWQDSFSPHLKHHPQEPANPNMPVVLTSGTGSQAQPQPAANQALAAGTHSSPVPGSIGVAGRSQDDAMVDYFFQRQHGEQLGGGGSGGGGYNNSKHRWPTGDNIHAEHQVRSMDELNHDFQALALEGRAMGEQLLPGKKFWETDESSKDGPKGIFLGDQWRDSAWGTSDHSVSQPIMVQRRPGQSFHVNSEVNSVLSPRSESGGLGVSMVEYVLSSSPGDSCLRKGGFGPRDADSDENDKGEKKNKGTFDGDKLGDLKEEGDVMDKTNGLPVQNGIDADVKDFSRTPGNCQNSANEVDLLGPNQNGSEGLAQLTSTNGAKPVEDFSNMESQSVPLDPMEHVGMEPLQFDYSGTQVPVDSAAATVGLFDYNSQQQLFQRPNALAVQQLTAAQQQQYALAAAHQPHIGLAPAAFVPNPYIISAAPPGTDPYTAGLAAAATLGPAVVPHQYYGVTPWGVYPASLFQQQAAAAAAATNSANQQTTPQAQQGQQQVLRGGASQRPLTPNQNQQGQQTDPLVAAAAVNSALAFGQGLAAGMPGYPVLAPAAYYDQTGALVVNAGARNGLGAPVRLVAPAPVIISSSAAQAAVAAAAASANGAAGGLAGTTNGPFRPLGTQQPQPQPQQQPNNNLASSSFYGNNSLNSNSQSSSLFSQGSAQPANTSLGFGSSSSLGATLGSALGGFGTAVANSNTGSGSRRDSLTGSSDLYKRTSSSLTPIGHSFYNGLSFSSSPGPVGMPLPSQGPGHSQTPPPSLSSHGSSSSLNLGGLTNGSGRYISAAPGAEAKYRSASSASSLFSPSSTLFSSSRLRYGMSDVMPSGRSRLLEDFRNNRYPNLQLREIAGHIMEFSQDQHGSRFIQLKLERATPAERQLVFNEILQAAYQLMVDVFGNYVIQKFFEFGSLEQKLALAERIRGHVLSLALQMYGCRVIQKALEFIPSDQQVINEMVRELDGHVLKCVKDQNGNHVVQKCIECVQPQSLQFIIDAFKGQVFALSTHPYGCRVIQRILEHCLPDQTLPILEELHQHTEQLVQDQYGNYVIQHVLEHGRPEDKSKIVAEIRGNVLVLSQHKFASNVVEKCVTHASRTERAVLIDEVCTMNDGPHSALYTMMKDQYANYVVQKMIDVAEPGQRKIVMHKIRPHIATLRKYTYGKHILAKLEKYYMKNGVDLGPICGPPNGII | 3 | 0 | 0 | 0 |  |  |  |  |
| RBM39 (protein) ADDIDIEAMLEAPYKKDENKLSSANGHEERSKKRKKSKSRSRSHERKRSKSKERKRSRDRERKKSKSRERKRSRSKERRRSRSRSRDRRFRGRYRSPYRRRSRSKSPFRKDKSPVREPIDNLTPEERDARTVFCMQLAARIRPRDLEEFFSTVGKVRDVRMISDRNSRRSKGIAYVEFVDVSSVPLAIGLTGQRVLGVPIIVQASQAEKNRAAAMANNLQKGSAGPMRLYVGSLHFNITEDMLRGIFEPFGRIESIQLMMDSETGRSKGYGFITFSDSECAKKALEQLNGFELAGRPMKVGHVTERTDASSASSFLDSDELERTGIDLGTTGRLQLMARLAEGTGLQIPPAAQQALQMSGSLAFGAVAEFSFVIDLQTRLSQQTEASALAAAASVQPLATQCFQLSNMFNPQTEEEVGWDTEIKDDVIEECNKHGGVIHIYVDKNSAQGNVYVKCPSIAAAIAAVNALHGRWFAGKMITAAYVPLPTYHNLFPDSMTATQLLVPSRR | 5 | 3 | 4 | 5 |  |  |  |  |
| DDOST (protein) SGPRTLVLLDNLNVRETHSLFFRSLKDRGFELTFKTADDPSLSLIKYGEFLYDNLIIFSPSVEDFGGNINVETISAFIDGGGSVLVAASSDIGDPLRELGSECGIEFDEEKTAVIDHHNYDISDLGQHTLIVADTENLLKAPTIVGKSSLNPILFRGVGMVADPDNPLVLDILTGSSTSYSFFPDKPITQYPHAVGKNTLLIAGLQARNNARVIFSGSLDFFSDSFFNSAVQKAAPGSQRYSQTGNYELAVALSRWVFKEEGVLRVGPVSHHRVGETAPPNAYTVTDLVEYSIVIQQLSNGKWVPFDGDDIQLEFVRIDPFVRTFLKKKGGKYSVQFKLPDVYGVFQFKVDYNRLGYTHLYSSTQVSVRPLQHTQYERFIPSAYPYYASAFSMMLGLFIFSIVFLHMKEKEKSD |  |  |  |  | 3 | 0 | 0 | 0 |
| EIF5B (protein) MGKKQKNKSEDSTKDDIDLDALAAEIEGAGAAKEQEPQKSKGKKKKEKKKQDFDEDDILKELEELSLEAQGIKADRETVAVKPTENNEEEFTSKDKKKKGQKGKKQSFDDNDSEELEDKDSKSKKTAKPKVEMYSGSDDDDDFNKLPKKAKGKAQKSNKKWDGSEEDEDNSKKIKERSRINSSGESGDESDEFLQSRKGQKKNQKNKPGPNIESGNEDDDASFKIKTVAQKKAEKKERERKKRDEEKAKLRKLKEKEELETGKKDQSKQKESQRKFEEETVKSKVTVDTGVIPASEEKAETPTAAEDDNEGDKKKKDKKKKKGEKEEKEKEKKKGPSKATVKAMQEALAKLKEEEERQKREEEERIKRLEELEAKRKEEERLEQEKRERKKQKEKERKERLKKEGKLLTKSQREARARAEATLKLLQAQGVEVPSKDSLPKKRPIYEDKKRKKIPQQLESKEVSESMELCAAVEVMEQGVPEKEETPPPVEPEEEEDTEDAGLDDWEAMASDEETEKVEGNKVHIEVKENPEEEEEEEEEEEEDEESEEEEEEEGESEGSEGDEEDEKVSDEKDSGKTLDKKPSKEMSSDSEYDSDDDRTKEERAYDKAKRRIEKRRLEHSKNVNTEKLRAPIICVLGHVDTGKTKILDKLRHTHVQDGEAGGITQQIGATNVPLEAINEQTKMIKNFDRENVRIPGMLIIDTPGHESFSNLRNRGSSLCDIAILVVDIMHGLEPQTIESINLLKSKKCPFIVALNKIDRLYDWKKSPDSDVAATLKKQKKNTKDEFEERAKAIIVEFAQQGLNAALFYENKDPRTFVSLVPTSAHTGDGMGSLIYLLVELTQTMLSKRLAHCEELRAQVMEVKALPGMGTTIDVILINGRLKEGDTIIVPGVEGPIVTQIRGLLLPPPMKELRVKNQYEKHKEVEAAQGVKILGKDLEKTLAGLPLLVAYKEDEIPVLKDELIHELKQTLNAIKLEEKGVYVQASTLGSLEALLEFLKTSEVPYAGINIGPVHKKDVMKASVMLEHDPQYAVILAFDVRIERDAQEMADSLGVRIFSAEIIYHLFDAFTKYRQDYKKQKQEEFKHIAVFPCKIKILPQYIFNSRDPIVMGVTVEAGQVKQGTPMCVPSKNFVDIGIVTSIEINHKQVDVAKKGQEVCVKIEPIPGESPKMFGRHFEATDILVSKISRQSIDALKDWFRDEMQKSDWQLIVELKKVFEII | 3 | 0 | 0 | 0 |  |  |  |  |
